Results reported in the supplement of paper PMC9170038.

System: MS2 coat protein
Assay: apparent KD of MS2 coat protein; designed switch direction (-1 OFF switch, 1 ON switch): -1; higher = weaker reporter binding
How it was run: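 Stalled E. coli RNA polymerase transcribed designed RNA switches on Illumina chips, which were then titrated with SNAP-549-labelled MS2 coat protein, doubling from 0.7 or 1.5 nM to 3 µM. Steps lasted from 0.8–1.5 h at the lowest concentration to 10–20 min at the highest. The apparent KD is each design's median over clusters of curve-fitted normalised fluorescence.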

[1] = Eterna round: R95, input ligand: FMN 200 uM
[2] = Eterna round: R95, input ligand: microRNA oligo, concentration not stated
[3] = Eterna round: R95, input ligand: none
[4] = input ligand: microRNA oligo, concentration not stated

Row | Sequence | apparent KD of MS2 coat protein (input ligand: FMN 200 uM) [nM] | apparent KD of MS2 coat protein (input ligand: none) [nM] | apparent KD of MS2 coat protein [1] [nM] | apparent KD of MS2 coat protein [2] [nM] | apparent KD of MS2 coat protein [3] [nM] | apparent KD of MS2 coat protein [4] [nM]
1 | CCCUCAAGCGAGGAUAUAAAUGCGCAUUCGCGGUUAGAAGGCGCUACAUGAGGAUCACCCAUGUAAUUGUAUGG [jl-ex6-4.53 ViennaUCT mod] (Eterna round: R97, puzzle: Exclusion 6) | 98.4 | 73.4 | – | – | – | –
2 | UCAGGUGCAGGAUAUACAUGAGGAUCACCCAUGUGGUCACGUGACGAUAGUCACGAAUGUAGAAGGGCACCUGA [E3/3-D1] (Eterna round: R97, puzzle: Exclusion 3) | 60.1 | 958 | – | – | – | –
3 | CUUCAAGCACCAGAGCUCACACUUAUACCUGCUCUGGUGACAUGAGGAUCACCCAUGUUUUUUGCCCGUCUUAUCUU [Sensor v3, turn-off variant 2 (MOD of Leso v.2)] (puzzle: Sensor v3, turn-off variant 2) | – | – | 92.8 | 276 | 115 | –
4 | UGUACUAUGCGUGCUGACAUGCGUAGUGCAGCAGGUGUUACAUGAGGAUCACCCAUGUCCUCAUUUGCUCGUCUUAU [SL-sv3-2.07 JL mod] (puzzle: Sensor v3, turn-off variant 2) | – | – | 189 | 200 | 215 | –
5 | GGGCCCGGUGUGAGGAUAUGUGAUCGGAAAUGAUCGUAGAAGGCACAUGAGGAUCACCCAUGUAAGCCGGGCCC [-31.3, -29.2 kcal, A 26%, 2-0] (Eterna round: R97, puzzle: Brourd's mod of Exclusion 4) | 34.2 | 289 | – | – | – | –
6 | CUCUUGUUAGGAUAUCAAACCGGCGGCGGAGCCGCCGGAAGUGAGAAGGGACAUGAGGAUCACCCAUGUAAGAA [Maorgees] (puzzle: Exclusion 4) | – | – | – | 56.3 | – | –
7 | AUAAUGUCAGGAUAUCAGUCGACUAGCUGCGGCUAGUCGACUGAGAAGGGACAUGAGGAUCACCCAUGUGUUUC [E4/14-A3] (Eterna round: R97, puzzle: Exclusion 4) | 475 | 367 | – | – | – | –
8 | AGGUGAGCCGUCAGGAUAUGCGUUCCGUAGGGUCAGCAGAAGGGACAUGAGGAUCACCCAUGUUUCGCACGUGG [Veraxedi] (Eterna round: R96, puzzle: Brourd's mod of Exclusion 4) | 76.5 | 31.5 | – | – | – | 23.5
9 | GCCGUACAUGAGGAUCACCCAUGUCAGGAUAUUUAGCACUCGGAGUUCCCGAGAGGUCAAAGAAGGGACAUUGC [EX1 C.17] (Eterna round: R97, puzzle: Exclusion 1) | 21.6 | 17.4 | – | – | – | –
10 | UUAAAACAUGUAGGAUAUGCGUAGAAAAGCUAUGCAGAAGGACAUGAGGAUCACCCAUGUUCAACCAUCAACGUACAGAUGGAA (Eterna round: R96, puzzle: Exclusion NG 1) | 31.7 | 14.1 | – | – | – | 12.1
11 | CUGAUGUCAGGAUAUCGGUGGCUCACUAAUGUGUGCCAGACCGAGAAGGGACAUGAGGAUCACCCAUGUCUUUA [Exclusion 4 (Mod5b of #36 by Marzena11)] (Eterna round: R97, puzzle: Exclusion 4) | 42.4 | 26.2 | – | – | – | –
12 | GCAGCAACUCUAAUUAAAACCACAUGAGGAUCACCCAUGUCUCAGGAUAUGGUCUGGAUUACAGGCCAGAAGGGAGAAAGCUGC [Eli exng3 - 051] (Eterna round: R96, puzzle: Exclusion NG 3) | 15.9 | 17 | – | – | – | 14.9
13 | GGCAUGCAAGGAUAUACUUACGGUGAUGUUCGAAGCUUUCUACUUGAGGAUCACCCAAGUAGAAGGUGCAUGCC [jl-ex2.4.75 ViennaUCT mod] (Eterna round: R97, puzzle: Exclusion 2) | 10.5 | 21.1 | – | – | – | –
14 | GACCUAUAGGUAGGAUAUCAUUGCGAUUAGCUAUGAGAAGGACCACAUGAGGAUCACCCAUGUCCUCCAAUUAACCAUAAGGUC [Fiskers ExNg1 - 5] (Eterna round: R96, puzzle: Exclusion NG 1) | 98.7 | 40.9 | – | – | – | 34.6
15 | GUGUAGCAAGGAUAUACAUGAGGAUCACCCAUGUGAAUAAGAUAGAAUAAGAUAAAGUGUAGAAGGUGUAGUGU [Excluse me!!! 10 - Jieux - Exclusion 3] (puzzle: Exclusion 3) | – | – | – | 37.2 | – | –
16 | CCAGAAUGUGUCAGGAUAUCGGGUACCAAUAGCUUCGAGAAGGGACAUGAGGAUCACCCAUGUUCUCGGAGAGA [Eternabot (L2) Solution 76] (Eterna round: R97, puzzle: Brourd's mod of Exclusion 4) | 20.5 | 18 | – | – | – | –
17 | CAGUACUGAGGAUAUACAUGAGGAUCACCCAUGUAAUAAUCGUAGGAAACUACGAUAUGUAGAAGGCAGUACUG [Eli x3 4.04] (Eterna round: R97, puzzle: Exclusion 3) | 16 | 13.1 | – | – | – | –

Row | Sequence | apparent KD of MS2 coat protein (input ligand: FMN 200 uM) [nM] | apparent KD of MS2 coat protein (input ligand: none) [nM] | apparent KD of MS2 coat protein [1] [nM] | apparent KD of MS2 coat protein [2] [nM] | apparent KD of MS2 coat protein [3] [nM] | apparent KD of MS2 coat protein [4] [nM]
18 | CCAGGCAGUGUGAGGAUAUGCUGGUCCUUGGAUCAGCAGAAGGCACAUGAGGAUCACCCAUGUGAAGAGCUUGG [JL bmx4 3.24] (puzzle: Brourd's mod of Exclusion 4) | – | – | – | 24.1 | – | –
19 | UACGAGUUAGGAUAUGCAAUGGGCUCGCUUUCCUUCGAUAAACUUGAGGAUCACCCAAGUAGAAGGAACUUGUA [Mod 36 - Jieux - Exclusion 2] (Eterna round: R97, puzzle: Exclusion 2) | 19.9 | 16.2 | – | – | – | –
20 | GCGUGGGCCGCAGGAUAUGAGGCCGUGGGUUCACCCAAACACACAUGAGGAUCACCCAUGUGUCAUCAGAAGGGCGAGCCUACU [Sozasora] (Eterna round: R96, puzzle: Exclusion NG 2) | 18.9 | 21.4 | – | – | – | 17.5
21 | AGUACUAACUCGAAAGUGUUAGUACAAUAAGCUUGUGAAACAUGAGGAUCACCCAUGUCCUCAUAAGCUCGUCUUAU [salish99_TOv2_r3_022] (Eterna round: R96, puzzle: Sensor v3, turn-off variant 2) | 16 | 18 | – | – | – | 430
22 | AACUCAUGUUCAGGAUAUCGCGUUCCAAAGACAUGAGAAGGGAACAUGAGGAUCACCCAUGUGCCCGGUCUCAGACCGGGCUUC [Legebi] (Eterna round: R96, puzzle: Exclusion NG 1) | 272 | 97.1 | – | – | – | 71
23 | GCCGAAAAUGUGAGGAUAUACCUAUGGAAACAUAGGUAGAAGGCACAUGAGGAUCACCCAUGUCCAAUAACGGC [Mat - Exclusion 4 - Eli Mod - D25] (Eterna round: R97, puzzle: Brourd's mod of Exclusion 4) | 664 | 287 | – | – | – | –
24 | ACAUGAGGAUCACCCAUGUUUUUCGGGUACUCUUGAUACAGCAAGGAUAUGCAUUAUUUAUGUACGCAGAAGGUGCAUUACGUC [JR_ExcNG3_Sub064] (Eterna round: R96, puzzle: Exclusion NG 3) | 104 | 71.9 | – | – | – | 67
25 | GGUACUAACACGAAAGUGUUAGUACUAUAAGCUUGUGUUACAUGAGGAUCACCCAUGUCCUCAUAAGCUCGUCUUAU [JL-sv3-2.16 mat747 mod] (puzzle: Sensor v3, turn-off variant 2) | – | – | 86.7 | 19.6 | 108 | –
26 | AUAAUUAAUGCAGGAUAUCAGCACGUGUAGUGCUGAGAAGGGCACAUGAGGAUCACCCAUGUGAUCAAUUAAUAUUAAUAUUAU [ENG1/11-D3] (Eterna round: R96, puzzle: Exclusion NG 1) | – | – | – | – | – | 48.4
27 | AUGGUCCGAGGAUAUAUUAUGUGAUACAUGAGGAUCACCCAUGUUAUAUGAUGGAUGUUAGUAGAAGGCGGACUAC [salish99_ex5_r3_002] (puzzle: Exclusion 5) | – | – | 89.3 | 82.2 | 103 | –
28 | CAGUACUGAGGAUAUACAUGAGGAUCACCCAUGUGUCUUCUAUUAGGAAACUAGUUAUGUAGAAGGCAGUACUG [Omei Ex3 Mod of Eli 4.27 v8] (Eterna round: R97, puzzle: Exclusion 3) | 221 | 16.9 | – | – | – | –
29 | GAGUGUUGAGGAUAUACAUGAGGAUCACCCAUGUGCUUCAGCUAGGAGACUAGCAUUGGUAGAAGGCAAUACUC [Mod of lroppy 6 - Jieux - Exclusion 3] (Eterna round: R97, puzzle: Exclusion 3) | 90.7 | 14.8 | – | – | – | –
30 | AGUACUAACACGAAAGUGUUAGUACAAUAAGCUUGUGCAACAUGAGGAUCACCCAUGUCCUCAUAAGCUCGUCUUAU [salish99_TOv2_r3_044] (puzzle: Sensor v3, turn-off variant 2) | – | – | 544 | 75.2 | 574 | –
31 | UUUUAACAUGAGGAUCACCCAUGUGAGGAUAUCGAAAUUUAUAUUUAUAUUUAUAAAUCGAGAAGGCACAUUUU [JMF 92] (puzzle: Exclusion 1) | – | – | – | 111 | – | –
32 | CGGUGCUGAGGAUAUACAUGAGGAUCACCCAUGUGUUCCUGCUAGGUGACUGGCAAAUGUAGAAGGCGGUACUG [JL-ex3-3.37 Brourd mod] (puzzle: Exclusion 3) | – | – | 34.8 | 120 | 131 | –
33 | GCAGCUAAUGCAGGAUAUCAGCACGUGUAGUGCUGAGAAGGGCACAUGAGGAUCACCCAUGUGAUCAAUUAAUAUUAAUGCUGC [ENG1/11-B3] (Eterna round: R96, puzzle: Exclusion NG 1) | 328 | 20.5 | – | – | – | 16.2
